In patent US8357523B2, “Beta-glucosidase variant enzymes and related polynucleotides” (Codexis, Inc., priority 2009, dated 2013):

Assay: High throughput cellobiose assay: fold improvement in cellobiase activity of CelA variants over a control enzyme (Tables 2A-2D, 3, 5, 6, 7)
Type: biochemical
Conditions: 3.3 g/l cellobiose, 55° C. and pH 6.0

| Molecule | Fold improvement over Control Variant No. 5 from Table 2A |
| --- | --- |
| 190 (protein) STAIAQEGAAPAAILHPEKWPRPATQRLIDPAVEKRVDALLKQLSVEEKVGQVIQGDIGTITPEDLRKYPLGSILAGGNSGPNGDDRAPPKEWLDLADAFYRVSLEKRPGHTPIPVLFGIDAVHGHGNIGSATIFPHNIALGATRDPELLRRIGEVTAVEMAATGIDWTFAPALSVVRDDRWGRTYEGFSEDPEIVAAYSAAIVEGVQGKFGSKDFMAPGRIVASAKHFLADGGTDQGRDQGDARISEDELIRIHNAGYPPAIDAGVLTVMASQSSWQGIKHHGHKQLLTDVLKGQMGFNGFIVGDWNAHDQVPGCTKFNCPTSLIAGLDMYMAADSWKQLYENTLAQVKDGTIPMARLDDAVRRILRVKVLAGLFEKPAPKDRPGLPGLETLGSPEHRAVGREAVRKSLVLLKNDKGTLPLSPKARVLVAGDGADNIGKQSGGWTISWQGTGNRNDEFPGATSILGGIRDAVADAGGSVEFDVAGQYKTKPDVAIVVFGEEPYAEFQGDVETLEYQPDQKQDLALLKKLKDQGIPVVAVFLSGRPMWVNPELNASDAFVAAWLPGTEGGGVADVLFTDKAGKVQHDFAGKLSYSWPRTAAQTTVNRGDADYNPLFAYGYGLTYKDKSKVGTLPEESGVPAEARQNAGIYFRAGALRLPGRFL | ++ (++ = 1.1 to 6 fold improvement over control Variant No. 2) |
| 191 (protein) STAIAQEGAAPAAILHPEKWPRPATQRLIDPAVEKRVDALLKQLSVEEKVGQVIQGDIGTITPEDLRKYPLGSILAGGNSGPNGDDRAPPKEWLDLADAFYRVSLEKRPGHTPIPVLFGIDAVHGHGNIGSATIFPHNIALGATRDPELLRRIGEVTAVEMAATGIDWTFAPALSVVRDDRWGRTYEGFSEDPEIVAAYSAAIVEGVQGKFGSKDFMAPGRIVASAKHFLADGGTDQGRDQGDARISEDELIRIHNAGYPPAIDAGVLTVMASASSWQGIKHHGHKQLLTDVLKGQMGFNGFIVGDWNAHDQVPGCTKFNCPTSLIAGLDMYMAADSWKQLYENTLAQVKDGTIPMARLDDAVRRILRVKVLAGLFEKPAPKDRPGLPGLETLGSPEHRAVGREAVRKSLVLLKNDKGTLPLSPKARVLVAGDGANNIGKQSGGWTISWQGTGNRNDEFPGATSILGGIRDAVADAGGSVEFDVAGQYKTKPDVAIVVFGEEPYAEFQGDVETLEYQPDQKQDLALLKKLKDQGIPVVAVFLSGRPMWVNPELNASDAFVAAWLPGTEGGGVADVLFTDKAGKVQHDFAGKLSYSWPRTAAQTTVNRGDADYNPLFAYGYGLTYKDKSKVGTLPEESGVPAEARQNAGIYFRAGALRLPGRFL | ++ (++ = 1.1 to 6 fold improvement over control Variant No. 2) |
| 192 (protein) STAIAQEGAAPAAILHPEKWPRPATQRLIDPAVEKRVDALLKQLSVEEKVGQVIQGDIGTITPEDLRKYPLGSILAGGNSGPNGDDRAPPKEWLDLADAFYRVSLEKRPGHTPIPVLFGIDAVHGHGNIGSATIFPHNIALGATRDPELLRRIGEVTAVEMAATGIDWTFAPALSVVRDDRWGRTYEGFSEDPEIVAAYSAAIVEGVQGKFGSKDFMAPGRIVASAKHFLADGGTDQGRDQGDARISEDELIRIHNAGYPPAIDAGVLTVMASASSWQGIKHHGHKQLLTDVLKGQMGFNGFIVGDWNAHDQVPGCTKFNCPTSLIAGLDMYMAADSWKQLYENTLAQVKDGTIPMARLDDAVRRILRVKVLAGLFEKPAPKDRPGLPGLETLGSPEHRAVGREAVRKSLVLLKNDKGTLPLSPKARVLVAGDGADNIGKQSGGWTISWQGTGNRNDEFPGATSILGGIRDAVADAGGSVEFDVAGQYKTKPDVAIVVFGEEPYAEFQGDVETLEYQPDQKQDLALLKKLKDQGIPVVAVFLSGRPMWVNPELNASDAFVAAWLPGTEGGGVADVLFTDKAGKVQHDFAGKLSYSWPRTAAQTTVNRGDADYNPLFAYGYGLTYKDKSKVGTLPEESGVPAEARQNAGIYFRAGALRLPGRFL | ++ (++ = 1.1 to 6 fold improvement over control Variant No. 2) |
| 193 (protein) STAIAQEGAAPAAILHPEKWPRPATQRLIDPAVEKRVDALLKQLSVEEKVGQVIQGDIGTITPEDLRKYPLGSILAGGNSGPNGDDRAPPKEWLDLADAFYRVSLEKRPGHTPIPVLFGIDAVHGHGNIGSATIFPHNIALGATRDPELLRRIGEVTAVEMAATGIDWTFAPALSVVRDDRWGRTYEGFSEDPEIVAAYSAAIVEGVQGKFGSKDFMAPGRIVASAKHFLADGGTDQGRDQGDARISEDELIRIHNAGYPPAIDAGVLTVMASFSSWQGIKHHGHKQLLTDVLKGQMGFNGFIVGDWNAHDQVPGCTKFNCPTSLSAGLDMYMAADSWKQLYENTLAQVKDGTIPMARLDDAVRRILRVKVLAGLFEKPAPKDRPGLPGLETLGSPEHRAVGREAVRKSLVLLKNDKGTLPLSPKARVLVAGDGADNIGKQSGGWTISWQGTGNRNDEFPGATSILGGIRDAVADAGGSVEFDVAGQYKTKPDVAIVVFGEEPYAEFQGDVETLEYQPDQKQDLALLKKLKDQGIPVVAVFLSGRPMWVNPELNASDAFVAAWLPGTEGGGVADVLFTDKAGKVQHDFAGKLSYSWPRTAAQTTVNRGDADYNPLFAYGYGLTYKDKSKVGTLPEESGVPAEARQNAGIYFRAGALRLPGRFL | ++ (++ = 1.1 to 6 fold improvement over control Variant No. 2) |
| 194 (protein) STAIAQEGAAPAAILHPEKWPRPATQRLIDPAVEKRVDALLKQLSVEEKVGQVIQGDIGTITPEDLRKYPLGSILAGGDSGPNGDDRAPPKEWLDLADAFYRVSLEKRPGHTPIPVLFGIDAVHGHGNIGSATIFPHNIALGMTRDPELLRRIGEVTAEEMAATGIDWTFAPALSVVRDDRWGRTYEGFSEDPEIVASYSAAIVEGVQGKFGSKDFMAPGRIVASAKHFLADGGTDQGRDQGDARISEDELIRIHNPGYPPAIDAGVLTVMASFSSWQGIKHHGHKQLLTDVLKGQMGFNGFIVGDWNAHDQVPGCTKFNCPTSLIAGLDMYMAADSWKQLYENTLAQVKDGTIPMARLDDAVRRILRVKVLAGLFEKPAPKDRPGLPGLETLGSPEHRAVGREAVRKSLVLLKNDKGTLPLSPKARVLVAGDGADNIGKQSGGWTISWQGTGNRNDEFPGATSILGGIRDAVADAGGSVEFDVPGQYKTKPDVAIVVFGEEPYAEFQGDVETLEYQPDQKQDLALLKKLKDQGIPVVAVFLSGRPMWVNPELNASDAFVAAWLPGTEGGGVADVLFTDKAGKVQHDFAGKLSYSWPRTAAQTTVNRGDADYNPLFAYGYGLTYKDKSKVGTLPEESGVPAEARQNAGIYFRAGALRLPGRFL | ++ (++ = 1.1 to 6 fold improvement over control Variant No. 2) |
| 196 (protein) STAIAQEGAAPAAILHPEKWPRPATQRLIDPAVEKRVDALLKQLSVEEKVGQVIQGDIGTITPEDLRKYPLGSILAGGDSGPNGDDRAPPKEWLDLADAFYRVSLEKRPGHTPIPVLFGIDAVHGHGNIGSATIFPHNIALGMTRDPELLRRIGEVTAEEMAATGIDWTFAPALSVVRDDRWGRTYEGFSEDPEIVASYSAAIVEGVQGKFGSKDFMAPGRIVASAKHFLADGGTDQGRDQGDARISEDELIRIHNAGYPPAIDAGVLTVMASFSSWQGIKHHGHKQLLTDVLKGQMGFNGFIVGDWNAHDQVPGCTKFNCPTSLIAGLDMYMAADSWKQLYENTLAQVKDGTIPMARLDDAVRRILRVKVLAGLFEKPAPKDRPGLPGLETLGSPEHRAVGREAVRKSLVLLKNDKGTLPLSPKARVLVAGDGADNIGKQSGGWTISWQGTGNRNDEFPGATSILGGIRDAVADAGGSVEFDVAGQYKTKPDVAIVVFGEEPYAEFQGDVETLEYQPDQKQDLALLKKLKDQGIPVVAVFLSGRPMWVNPELNASDAFVAAWLPGTEGPGVADVLFTDKAGKVQHDFAGKLSYSWPRTAAQTPVNRGDADYNPLFAYGYGLTYKDKSKVGTLPEESGVPAEARQNAGIYFRAGALRLPGRFL | ++ (++ = 1.1 to 6 fold improvement over control Variant No. 2) |
| 82 (protein) STAIAQEGAAPAAILHPEKWPRPATQRLIDPAVEKRVDALLKQLSVEEKVGQVIQGDIGTITPEDLRKYPLGSILAGGNSGPNGDDRAPPKEWLDLADAFYRVSLEKRPGHTPIPVLFGIDAVHGHGKIGSATIFPHNIALGATRSPELLRRIGEVTAVEMAATGIDWTFAPALSVVRDDRWGRTYEGFSEDPEIVAAYSAAIVEGVQGKFGSKDFMAPGRAVACAKHFLADGGTDQGRDQGDARISEDELIRIHNAGYPPAIDAGVLTVMASFSSWQGIKHHGHKQLLTDVLKGQMGFNGFIVGDWNAHDQVPGCTKFNCPTSLIAGLDMYMAADSWKQLYENTLAQVKDGTIPMARLDDAVRRILRVKVLAGLFEKPAPKDRPGLPGLETLGSPEHRAVGREAVRKSLVLLKNDKGTLPLSPKARVLVAGDGADNIGKQSGGWTISWQGTGNRNDEFPGATSILGGIRDAVADAGGSVEFDVAGQYKTKPDVAIVVFGEEPYAEFQGDVETLEYQPDQKQDLALLKKLKDQGIPVVAVFLSGRPMWVNPELNASDAFVAAWLPGTEGGGVADVLFTDKAGKVQHDFAGKLSYSWPRTAAQTTVNRGDADYNPLFAYGYGLTYKDKSKVGTLPEESGVPAEARQNAGIYFRAGALRLPGRFL | +++ (+++ = 6 to 13 fold improvement over control Variant No. 2) |
| 197 (protein) STAIAQEGAAPAAILHPEKWPRPATQRLIDPAVEKRVDALLKQLSVEEKVGQVIQGDIGTITPEDLRKYPLGSILAGGDSGPNGDDRAPPKEWLDLADAFYRVSLEKRPGHTPIPVLFGIDAVHGHGNIGSATIFPHNIALGMTRDPELLRRIGEVTAEEMAATGIDWTFAPALSVVRDDRWGRTYEGFSEDPEIVASYSAAIVEGVQGKFGSKDFMAPGRIVASAKHFLADGGTDQGRDQGDARISEDELIRIHNAGYPPAIDAGVLTVMASFSSWQGIKHHGHKQLLTDVLKGQMGFNGFIVGDWNAHDQVPGCTKFNCPTSLIAGLDMYMAADSWKQLYENTLAQVKDGTIPMARLDDAVRRILRVKVLAGLFEKPAPKDRPGLPGLETLGSPEHRAVGREAVRKSLVLLKNDKGTLPLSPKARVLVAGDGADNIGKQSGGWTISWQGTGNRNDEFPGATSILGGIRDAVADAGGSVEFDVPGQYKTKPDVAIVVFGEEPYAEFQGDVETLEYQPDQKQDLALLKKLKDQGIPVVAVFLSGRPMWVNPELNASDAFVAAWLPGTEGGGVADVLFTDKAGKVQHDFAGKLSYSWPRTAAQTPVNRGDADYNPLFAYGYGLTYKDKSKVGTLPEESGVPAEARQNAGIYFRAGALRLPGRFL | ++ (++ = 1.1 to 6 fold improvement over control Variant No. 2) |
